Assay results taken from publication PMC12080732 (mAbs, 2025).

Biological target: active trimeric human TNFα (human, UniProt P01375 77-233)
Assay: SPR

active trimeric human TNFα, sequence (P01375 77-233): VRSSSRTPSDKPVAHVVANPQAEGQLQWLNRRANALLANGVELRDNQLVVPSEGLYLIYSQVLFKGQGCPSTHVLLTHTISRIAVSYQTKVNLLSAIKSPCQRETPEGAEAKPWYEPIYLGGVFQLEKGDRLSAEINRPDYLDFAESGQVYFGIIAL

Row | Kd | koff | Binder
1 | 0.077 nM | 2.87e-05 s⁻¹ | TNFI-Nb2 (VHH) VHH: QVQLVESGGGLVQPGGSLRLSCAASGFAFNDHWMYWVRQAPGKELEWVSEINTNGLITKYADFVKGRFTVSRDNAKNTLYLQMNSLEPEDTAVYSCSRNQIGTLRGQGTQVTVSS
2 | 0.219 nM | – | TNFI-Nb1 (VHH) VHH: EVQLVESGGGLVQPGGSLRLSCAASGFAFNDHWMYWVRQAPGKELEWVSEINTNGLITKYADFVKGRFTVSRDNAKNTLYLQMDSLRPEDTAVYSCSRNQIGTLRGQGTQVTVSS
3 | 0.392 nM | – | TNFI-Nb3 (VHH) VHH: QVQLVESGGGLVQPGGSLRLSCAASGFAFNDHWMYWVRQAPGKELEWVSEINTNGLITKYADFVKGRFTVSRDNAENTLYLQMNSLEPEDTAVYSCSRNQIGTLRGQGTQVTVSS
